Source: patent US20070293659A1

Biological target: Human interleukin-2 (IL-2) (human) (UniProt P60568)
Test: SPR (BIAcore 3000), data not shown

- Kd: 0.1 nM
Substance: oriented (Or) Fab'602: Fab' fragment of MAB602 biotinylated in the hinge region
